The values below come from US9315793B2, “Enzymes that synthesize zingiberene” (Board of Trustees of Michigan State University, priority 2011, dated 2016).

A short description of this test: Substrate specificity of recombinant LA2167-ZIS (GPP, NPP, EE-FPP or 2Z,6Z-FPP), GC-MS of products. To be noted: for substrate giving zingiberene (substrate specificity): no substrate, GPP, NPP, 2Z,6Z-FPP and E,E-FPP compared. In kind it is biochemical, Solanum habrochaites. As for the experimental part:
The synthetic gene was excised from the pUC57 cloning vector by digestion with BamHI and SalI and ligated into the pHIS8 vector previously linearized by digestion with the same enzymes. Recombinant clones were transformed into E. coli BL21 cells. A 5-mL log-phase culture of E. coli BL21 cells containing the expression vector was induced by addition of IPTG to a final concentration of 0.1 mM. The induced cells were incubated with agitation at 25° C. for 16 h, and then harvested by centrifugation at 10,000 g for 15 min. The cell pellet was resuspended in 1 mL extraction buffer (50 mM HEPES pH 8, 5% glycerol, 100 mM KCl, 7.5 mM MgCl2 containing 1 mM dithiothreitol (DTT)) prior to sonication. Soluble proteins were harvested after centrifugation at 10,000 g for 20 min. The supernatant was used for subsequent enzyme assays. Two micrograms of soluble protein were mixed with 10 μM of substrate (GPP, NPP, EE-FPP or 2Z,6Z-FPP (Echelon Biosciences Inc., Salt Lake City, Utah)) in a 2-mL glass vial. Reactions were allowed to proceed for 30 min at 30° C., and the glass vial headspace was collected with a 65 μm polydimethylsiloxane-divinylbenzene solid-phase microextraction fiber (Supelco, Bellefonte, Pa.). After 5 min of exposure at 42° C., the SPME fiber was retracted and transferred to the GC injector port for desorption at 200° C. onto the GC column for 3 min. The terpenes were separated on a DB5 column (10 m length, inner diameter and 0.25 um). The GC-MS analysis was performed as described previously […] et al. (Plant Physiol 153, 1212-1223 (2010)).

B1: LA2167-ZIS: sesquiterpene (zingiberene) synthase of Solanum habrochaites accession LA2167, SEQ ID NO:2; codon-optimized form lacking chloroplast transit sequence SEQ ID NO:4 (protein)
chain: MIVGYRSTIITLSHPKLGNGKTISSNAIFRRSCRVRCSHSTPSSMNGFEDARDRIRESFGKVELSPSSYDTAWVAMVPSKHSLNEPCFPQCLDWIIENQREDGSWGLNPSHPLLLKDSLSSTLACLLALTKWRVGDEQIKRGLGFIETQSWAIDNKDQISPLGFEIIFPSMIKSAEKLNLNLAINKRDSTIKRALQNEFTRNIEYMSEGFGELCDWKEIIKLHQRQNGSLFDSPATTAAALIYHQHDKKCYEYLNSILQQHKNWVPTMYPTKIHSLLCLVDTLQNLGVHRHFKSEIKKALDEIYRLWQQKNEEIFSNVTHCAMAFRLLRISYYDVSSDELAEFVDEEHFFATSGKYTSHVEILELHKASQLAIDHEKDDILDKINNWTRTFMEQKLLNNGFIDRMSKKEVELALRNFYIISDLAENRRYIKSYEENNFKILKAAYRSPNINNKDLFIFSIRDFELCQAQHQEELQQLKRWFEDCRLDQLGLSEQFISASYLCAIPIVPGPELSDARLVYAKYVMLLTIVDDHFESFASTDECLNIIELVERWDDYASVGYKSERVKVLFSMFYKSIEEIATIAEIKQGRSVKNHLINLWLKVMKLMLMERVEWCSGKTIPRIEEYLYVSSITFGSRLIPLTTQYFIGIKISKDLLESDEIYGLCNFTGIVLRLLNDLQDSKREQKEGSINLVTLLMKSISEEEAIMKMKEILEMKRRELFKMVLVQKKGSQLPQLCKEIFWRTCKWAHFTYSQTDRYRFPEEMENHIDEVFYKPLNH
modifications: Solanum habrochaites
Turning to B1, the “substrate giving zingiberene (substrate specificity)” value is “only observed when 2Z,6Z-farnesyl diphosphate is used as substrate”. For the same molecule, the “product synthesis with geranyl diphosphate (GPP) as substrate” value (GPP supplied as substrate) is “failed to synthesize any products”. Also, the “product synthesis with neryl diphosphate (NPP) as substrate” value (NPP supplied as substrate) is recorded as “failed to synthesize any products”. For the same molecule, the “substrate giving zingiberene (substrate specificity)” value (listed as zingiberene synthase from accession LA2167) was “only uses 2Z,6Z-farnesyl diphosphate”.
